This test has as its target human tumor necrosis factor-alpha (hTNFα) (human, UniProt P01375 77-233). The test is described as follows: cell-based or functional assay.

Sequence of human tumor necrosis factor-alpha (hTNFα) (P01375 77-233): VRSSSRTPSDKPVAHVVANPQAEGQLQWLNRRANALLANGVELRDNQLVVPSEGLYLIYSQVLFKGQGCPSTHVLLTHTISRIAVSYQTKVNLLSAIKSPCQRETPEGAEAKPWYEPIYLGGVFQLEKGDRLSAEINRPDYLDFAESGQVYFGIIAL

B1: p75P-sf2 TNF receptor/IgG1 fusion protein (Fc fusion)
chain: QLPAQVAFTPYAPEPGSTCRLREYYDQTAQMCCSKCSPGQHAKVFCTKTSDTVCDSCEDSTYTQLWNWVPECLSCGSRCSSDQVETQACTREQNRICTCRPGWYCALSKQEGCRLCAPLRKCRPGFGVARPGTETSDVVCKPCAPGTFSNTTSSTDICRPHQICNVVAIPGNASMDAVCTSTSGTLVTVSS
For B1, the “IC50: concentration of fusion protein required to inhibit 2 ng/ml (39.2 pM) TNFα by 50%, WEHI 164 cytotoxicity assay” value came out at 70 pM.

B2: p55-sf2 TNF receptor/IgG1 fusion protein (Fc fusion)
chain: QVCPQGKYIHPQNNSICCTKCHKGTYLYNDCPGPGQDTDCRECESGSFTASENHLRHCLSCSKCRKEMGQVEISSCTVDRDTVCGCRKNQYRHYWSENLFQCFNCSLCLNGTVHLSCQEKQNTVCTCHAGFFLRENECVSCSNCKKSLECTKLCLPQIPGTLVTVSS
As for B2, the “IC50: concentration of fusion protein required to inhibit 2 ng/ml (39.2 pM) TNFα by 50%, WEHI 164 cytotoxicity assay” value was 70 pM.

Source of the values: patent US20060140946A1 (published 2006).
